Experimental findings from patent US20170298139A1 (OPI VI IP HOLDCO, published 2017) are described below.

The chains are these.
B1: SBT-040-WT-ATAC11 (antibody, human IgG1, kappa)
heavy: not shown
light: DIQMTQSPSSVSASVGDRVTITCRASQGIYSWLAWYQQKPGKAPNLLIYTASTLQSGVPSRFSGSGSGTDFTLTISSLQPEDFATYYCQQANIFPLTFGGGTKVEIKRTVAAPSVFIFPPSDEQLKSGTASVVCLLNNFYPREAKVQWKVDNALQSGNSQESVTEQDSKDSTYSLSSTLTLSKADYEKHKVYACEVTHQGLSSPVTKSFNRGEC
modifications: ATAC11 on reduced cysteines; sites not stated (heavy or light chain); ATAC11 (maleimide-PEG4 linker with immune-stimulatory compound) on reduced cysteines; sites not stated (heavy or light chain); DAR 4.5
B2: SBT-040-G2-ATAC11 (antibody, human IgG2, kappa)
heavy: not shown
light: B1 light
modifications: ATAC11 on reduced cysteines; sites not stated (heavy or light chain); ATAC11 (maleimide-PEG4 linker with immune-stimulatory compound) on reduced cysteines; sites not stated (heavy or light chain); DAR 4.0
B3: SBT-040-WT-ATAC4 (antibody, human IgG1, kappa)
heavy: not shown
light: B1 light
modifications: ATAC4 on lysines; sites not stated (heavy or light chain); ATAC4 (PEG linker with activated ester and immune-stimulatory compound) on lysines; sites not stated (heavy or light chain); DAR 4.6
notes: also called SBT-040-G1-ATAC4
B4: SBT-040-G2-ATAC3 (antibody, human IgG2, kappa)
heavy: not shown
light: B1 light
modifications: ATAC3 on lysines; sites not stated (heavy or light chain); ATAC3 (PEG linker with activated ester and immune-stimulatory compound) on lysines; sites not stated (heavy or light chain); DAR 3.3
B5: SBT-040-G2-ATAC22 (antibody, human IgG2, kappa)
heavy: not shown
light: B1 light
modifications: ATAC22 on reduced cysteines; sites not stated (heavy or light chain); ATAC22 (maleimidocaproyl-Val-Ala-PAB linker with immune-stimulatory compound) on reduced cysteines; sites not stated (heavy or light chain); DAR 4.1
B6: SBT-040-WT antibody (antibody, human IgG1, kappa)
heavy: not shown
light: B1 light
notes: also called SBT-040-G1
B7: SBT-040-WT-ATAC3 (antibody, human IgG1, kappa)
heavy: not shown
light: B1 light
modifications: ATAC3 on lysines; sites not stated (heavy or light chain); ATAC3 (PEG linker with activated ester and immune-stimulatory compound) on lysines; sites not stated (heavy or light chain); DAR 5.4
notes: also called SBT-040-G1-ATAC3
B8: SBT-040-WT-ATAC22 (antibody, human IgG1, kappa)
heavy: not shown
light: B1 light
modifications: ATAC22 on reduced cysteines; sites not stated (heavy or light chain); ATAC22 (maleimidocaproyl-Val-Ala-PAB linker with immune-stimulatory compound) on reduced cysteines; sites not stated (heavy or light chain); DAR 4.6
B9: SBT-040-G2-ATAC4 (antibody, human IgG2, kappa)
heavy: not shown
light: B1 light
modifications: ATAC4 on lysines; sites not stated (heavy or light chain); ATAC4 (PEG linker with activated ester and immune-stimulatory compound) on lysines; sites not stated (heavy or light chain); DAR 2.9
B10: SBT-040-G2 (antibody, human IgG2, kappa)
heavy: not shown
light: B1 light
notes: also called SBT-040-G2WT
B11: SBT-040-VLPLL-ATAC22 (antibody, human IgG1, kappa)
heavy: not shown
light: B1 light
modifications: ATAC22 on reduced cysteines; sites not stated (heavy or light chain); ATAC22 (maleimidocaproyl-Val-Ala-PAB linker with immune-stimulatory compound) on reduced cysteines; sites not stated (heavy or light chain); DAR 3.9
B12: SBT-040-AAA-ATAC22 (antibody, human IgG1, kappa)
heavy: not shown
light: B1 light
modifications: ATAC22 on reduced cysteines; sites not stated (heavy or light chain); ATAC22 (maleimidocaproyl-Val-Ala-PAB linker with immune-stimulatory compound) on reduced cysteines; sites not stated (heavy or light chain); DAR 4.1
B13: SBT-040-VLPLL-ATAC11 (antibody, human IgG1, kappa)
heavy: not shown
light: B1 light
modifications: ATAC11 on reduced cysteines; sites not stated (heavy or light chain); ATAC11 (maleimide-PEG4 linker with immune-stimulatory compound) on reduced cysteines; sites not stated (heavy or light chain); DAR 2.9
B14: SBT-040-AAA-ATAC11 (antibody, human IgG1, kappa)
heavy: not shown
light: B1 light
modifications: ATAC11 on reduced cysteines; sites not stated (heavy or light chain); ATAC11 (maleimide-PEG4 linker with immune-stimulatory compound) on reduced cysteines; sites not stated (heavy or light chain); DAR 2.9

T3 sequence (O75015 17-200 limits assumed): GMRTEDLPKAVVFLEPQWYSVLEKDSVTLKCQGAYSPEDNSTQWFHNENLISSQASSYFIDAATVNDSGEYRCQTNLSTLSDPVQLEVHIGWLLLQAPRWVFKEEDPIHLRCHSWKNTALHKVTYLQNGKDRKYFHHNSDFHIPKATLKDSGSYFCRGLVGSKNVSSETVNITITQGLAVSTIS
T2 sequence (P25942 21-193): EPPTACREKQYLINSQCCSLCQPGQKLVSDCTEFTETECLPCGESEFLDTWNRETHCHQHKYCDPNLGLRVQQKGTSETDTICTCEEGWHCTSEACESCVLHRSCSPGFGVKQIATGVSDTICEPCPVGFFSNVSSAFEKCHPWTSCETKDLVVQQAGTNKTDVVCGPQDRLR
T1 sequence (F6SNI1 entry or part of it limits assumed): as the sequence (P25942 21-193) above, with G43S, H56R, W89L, T92M, A95S, L101P, S106L, H142R, L172Q counted along it

The first experiment addresses T1, Rhesus CD40 ECD monomer (rhesus, UniProt F6SNI1 21-193).
T1 construct: Recombinant monomeric CD40 ECD used as analyte; also called monomeric rhesus CD40
The experiment can be described thus: BLI (Octet Red 96), antibody on anti-human Fc sensor, monomeric CD40 ECD as analyte, 1:1 fit. Here is the method:
(§1) Analysis of CD40 ECD interaction was performed using Octet Red 96 instrument (ForteBio). The Octet systems use propriety BLI to analyze biomolecular interaction. […] The experiments were comprised of 5 steps: (1) baseline acquisition (60 s); (2) antibodies and antibody immune-stimulatory compound conjugates loading onto anti-human Fc biosensor (120 s); (3) second baseline acquisition (60 s); (4) association of interacting monomeric CD40 ECD protein for kₒₙ measurement (120 s); (5) Dissociation of interacting monomeric CD40 ECD for koff measurement (360 s). The interacting monomeric CD40 ECD were used at 5-6 concentrations of 3-fold concentration series. Data were analyzed using Octet Data Analysis Sofware 9.0 (ForteBio) and fitted to the 1:1 binding model. Equilibrium dissociation constants (KD) were calculated by the […].
In the case of B1, the Kd was determined as 13.5 nM.
Same read-out and setting: next, B2: 14 nM; B3: 12.9 nM; B4: 11.5 nM.
Still for that read-out and setting: the figure for B5 is 15.2 nM.
Regarding B6, the Kd came out at 14 nM.
Same read-out and setting: the figure for B7 is 13.1 nM; for B8 it is 13.6 nM; for B9 it is 13.6 nM.
On to B10, for which the Kd turned out to be 12.4 nM.

The next experiment has as its target T2, Human CD40 ECD monomer (human, UniProt P25942 21-193).
T2 construct: extracellular domain; Recombinant monomeric CD40 ECD used as analyte; also called monomeric human CD40; CD40 Extracellular Domain (ECD)
The description is as above. The method, then:
as §1
The molecule B2 yielded a Kd of 7.4 nM.
Still for that read-out and setting: the figure for B3 is 9.3 nM; for B4 it is 7.3 nM; for B5 it is 7.2 nM.
The same measure, in the same setting: next, B7: 9 nM; B8: 8 nM; B9: 8.7 nM.
On the same count and under the same terms, the figure for B10 is 7.7 nM.
Molecule B11 yielded a Kd of 7.5 nM.
In turn, B12 returned a Kd of 5 nM.
On the same count and under the same terms, the figure for B13 is 7.6 nM.

The next experiment has as its target T3, human FcγRIIIB (human, UniProt O75015 17-200).
T3 construct: also called CD16b
Put plainly: BLI (Octet Red 96), FcγR on anti-his tag sensor, antibody as analyte, avidity fit. Here is the method: For human FcγRIIB/C, FcγRIIIA F158, FcγRIIIA V158 and FcγRIIIB interaction studies, the proteins were immobilized on anti-his tag biosensors and incubated with varying concentration of unconjugated anti-CD40 antibodies or anti-CD40 antibody immune-stimulatory compound conjugates ranging from 0.04 μM to 8 μM. […] The experiment comprised of 5 steps: (1) baseline acquisition (60 s); (2) anti-CD40 antibodies or anti-CD40 antibody immune-stimulatory compound conjugates loading onto […] (120 s); (3) second baseline acquisition (60 s); (4) association of interacting protein for kₒₙ measurement (120 s); (5) dissociation of interacting FcγR for koff measurement (300 s). The interacting anti-CD40 antibodies or anti-CD40 antibody immune-stimulatory compound conjugates were used at 4 concentrations of 2 fold concentration series. Data were analyzed using Octet Data Analysis Software 9.0 (ForteBio) and fitted to the avidity binding model. Equilibrium dissociation constants (KD) were calculated by the […].
Background: BLI is a label-free optical method that tracks binding on a fibre tip over time.
In turn, B1 returned a Kd of 5000 nM.
Regarding B3, the Kd was 3240 nM.
Still for that read-out and setting: next, B4: 3930 nM; B6: 3600 nM; B7: 1500 nM.
With B8, the Kd came out at 2710 nM.
As to B14, the Kd worked out at 3830 nM.

In another experiment the target is T4, human FcγRI (human, UniProt P12314 16-288, limits assumed).
T4 construct: Monomeric FcγR used as analyte in solution; also called CD64
T4 sequence (P12314 16-288 limits assumed): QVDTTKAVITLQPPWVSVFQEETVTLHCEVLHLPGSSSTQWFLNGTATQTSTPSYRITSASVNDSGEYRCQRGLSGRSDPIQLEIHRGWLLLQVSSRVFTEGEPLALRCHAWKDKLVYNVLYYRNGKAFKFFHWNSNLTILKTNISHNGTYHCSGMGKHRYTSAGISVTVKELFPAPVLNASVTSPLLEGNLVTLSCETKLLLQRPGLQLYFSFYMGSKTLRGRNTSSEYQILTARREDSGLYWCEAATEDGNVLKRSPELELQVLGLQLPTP
The experiment can be described thus: BLI (Octet Red 96), antibody on anti-human Fc sensor, monomeric FcγR as analyte. Here is the method:
Human FcγR interaction analysis was also performed using Octet Red 96 instrument. […] The experiments were comprised of 5 steps: (1) baseline acquisition (60 s); (2) anti-CD40 antibodies or anti-CD40 antibody immune-stimulatory compound conjugates loading onto anti-human Fc biosensor (120 s); (3) second baseline acquisition (60 s); (4) association of interacting protein for kₒₙ measurement (120 s); (5) dissociation of interacting FcγR for koff measurement (300 s). The interacting monomeric FcγR were used at 5-6 concentrations of 3-fold concentration series. Data were analyzed using Octet Data Analysis Software 9.0 (ForteBio) and fitted to the 1:1 binding model. Equilibrium dissociation constants (KD) were calculated by the […].
As for B2, the binding result was “no binding (tested: 1.2 nM to 1 µM FcγR)”.
As for B4, the binding result is reported as “no binding (tested: 1.2 nM to 1 µM FcγR)”.
Same read-out and setting: the entry for B5 is “no binding (tested: 1.2 nM to 1 µM FcγR)”; for B9 it is “no binding (tested: 1.2 nM to 1 µM FcγR)”; for B10 it is “no binding (tested: 1.2 nM to 1 µM FcγR)”.
